In patent US20110300138A1 (published 2011):

How the values were obtained:
[1] = molecular target: thyroid stimulating hormone receptor (TSHR), full length human TSHR (human) (UniProt P16473); experiment: TSH-biotin competition ELISA, TSHR coated wells; negative control, 1 µg/mL in HBD serum
[2] = molecular target: TSH receptor (TSHR), full length human, coated on tubes (human) (UniProt P16473); experiment: inhibition of 125I-TSH binding to TSHR coated tubes; 10 µg/mL, diluted in HBD serum pool
[3] = molecular target: human thyroid stimulating hormone receptor (TSHR), full length (human) (UniProt P16473); experiment: 125I-K1-70 Fab (competitor) binding to TSHR coated tubes; negative control MAb 10 µg/mL in HBD serum
[4] = molecular target: human TSH receptor (full length) coated on ELISA plate wells (human) (UniProt P16473); experiment: TSH-biotin binding inhibition ELISA, TSHR coated wells; 10 µg/mL in HBD serum pool; negative control MAb
[5] = molecular target: human TSH receptor (full length) coated on ELISA plate wells (human) (UniProt P16473); experiment: TSH-biotin binding inhibition ELISA, TSHR coated wells; 100 µg/mL in HBD serum pool; negative control MAb
[6] = molecular target: TSHR (full length) coated on tubes (human) (UniProt P16473); experiment: inhibition of 125I-K1-18 Fab (competitor) binding to TSHR coated tubes; negative control 1 µg/mL in HBD serum
[7] = molecular target: TSHR (full length) coated on tubes (human) (UniProt P16473); experiment: inhibition of 125I-K1-18 Fab (competitor) binding to TSHR coated tubes; negative control 10 µg/mL in HBD serum
[8] = molecular target: TSHR (full length) coated on tubes (human) (UniProt P16473); experiment: inhibition of 125I-K1-18 Fab (competitor) binding to TSHR coated tubes; negative control 0.01 µg/mL in HBD serum
[9] = molecular target: TSHR (full length) coated on tubes (human) (UniProt P16473); experiment: inhibition of 125I-K1-18 Fab (competitor) binding to TSHR coated tubes; negative control 100 µg/mL in assay buffer
[10] = molecular target: TSH receptor (TSHR) coated on tubes (human) (UniProt P16473); experiment: inhibition of 125I-K1-70 IgG binding to TSHR coated tubes; negative control 100 µg/mL in HBD serum pool; duplicate determination
[11] = molecular target: TSH receptor (TSHR), full length human, coated on tubes (human) (UniProt P16473); experiment: inhibition of 125I-K1-18 IgG binding to TSHR coated tubes; competitor 125I-K1-18 IgG; negative control sample at 0.01 µg/mL in assay buffer
[12] = molecular target: TSH receptor (full length human TSHR) (human) (UniProt P16473); experiment: competition ELISA: inhibition of M22 Fab-peroxidase (competitor) binding to TSHR coated wells; negative control at 1 µg/mL diluted in assay buffer
[13] = molecular target: TSH receptor (full length human TSHR) (human) (UniProt P16473); experiment: competition ELISA: inhibition of M22 Fab-peroxidase (competitor) binding to TSHR coated wells; negative control at 100 µg/mL diluted in HBD serum pool
[14] = molecular target: TSHR (thyroid stimulating hormone receptor), full length human (human) (UniProt P16473); experiment: competitor ^125I-K1-70 IgG, TSHR coated tubes; 100 µg/mL in HBD
[15] = molecular target: thyroid stimulating hormone receptor (TSHR), full length human TSHR (human) (UniProt P16473); experiment: TSH-biotin competition ELISA, TSHR coated wells; 1 µg/mL in HBD serum
[16] = molecular target: TSHR (thyroid stimulating hormone receptor), full length human (human) (UniProt P16473); experiment: competitor ^125I-K1-70 IgG, TSHR coated tubes; 1 µg/mL in assay buffer
[17] = molecular target: full length wild type human TSHR (human) (UniProt P16473); experiment: TSHR260-AP bridge ELISA, wild type TSHR on wells; IgG at 0.5 µg/mL in HBD
[18] = molecular target: TSHR (full length) coated on tubes (human) (UniProt P16473); experiment: inhibition of 125I-K1-18 Fab (competitor) binding to TSHR coated tubes; test sample 100 µg/mL in assay buffer
[19] = molecular target: TSH receptor (TSHR), full length human, coated on tubes (human) (UniProt P16473); experiment: inhibition of 125I-K1-18 IgG binding to TSHR coated tubes; competitor 125I-K1-18 IgG; sample at 10 µg/mL in HBD serum
[20] = molecular target: TSH receptor (TSHR), full length human, coated on tubes (human) (UniProt P16473); experiment: inhibition of 125I-K1-18 IgG binding to TSHR coated tubes; competitor 125I-K1-18 IgG; sample at 0.01 µg/mL in assay buffer
[21] = molecular target: human TSH receptor (full length) coated on ELISA plate wells (human) (UniProt P16473); experiment: TSH-biotin binding inhibition ELISA, TSHR coated wells; 0.001 µg/mL in assay buffer + 100 µg/mL 5B3 IgG
[22] = molecular target: thyroid stimulating hormone receptor (TSHR), full length, coated on tubes (human) (UniProt P16473); experiment: inhibition of 125I-TSH binding, TSHR coated tubes; antibody 0.001 µg/mL in assay buffer; mean of duplicate
[23] = molecular target: TSH receptor (TSHR), full length human, coated on tubes (human) (UniProt P16473); experiment: inhibition of 125I-TSH binding to TSHR coated tubes; 0.01 µg/mL, diluted in assay buffer
[24] = molecular target: TSH receptor (TSHR), full length human, coated on tubes (human) (UniProt P16473); experiment: inhibition of 125I-TSH binding to TSHR coated tubes; 0.001 µg/mL, diluted in assay buffer
[25] = molecular target: TSH receptor (TSHR), full length human, coated on tubes (human) (UniProt P16473); experiment: inhibition of 125I-TSH binding to TSHR coated tubes; 0.001 µg/mL, diluted in HBD serum pool
[26] = molecular target: TSH receptor (TSHR), full length human, coated on tubes (human) (UniProt P16473); experiment: inhibition of 125I-K1-18 IgG (competitor) binding to TSHR coated tubes; test sample at 1 µg/mL in assay buffer
[27] = molecular target: TSH receptor (TSHR), full length human, coated on tubes (human) (UniProt P16473); experiment: inhibition of 125I-K1-18 IgG (competitor) binding to TSHR coated tubes; test sample at 0.01 µg/mL in assay buffer

5B3 IgG (antibody)
Inhibition of binding (%) [1]: -3.5% | Inhibition of binding (%) [2]: -1.9% | Inhibition of binding (%) [3]: -5.7% | % inhibition of TSH-biotin binding [4]: 11.6% | % inhibition of TSH-biotin binding [5]: 10.9% | Inhibition of binding (%) [6]: -3.1% | Inhibition of binding (%) [7]: -0.1% | Inhibition of binding (%) [8]: -8.6% | Inhibition of binding (%) [9]: 6.3% | Inhibition of binding (%) [10]: 1.1% | Inhibition of binding (%) [11]: -4.2% | Inhibition of binding (%) [12]: 3.4% | Inhibition of binding (%) [13]: 3.8%

9D33 IgG (antibody)
Inhibition of binding (%) [14]: 51.1% | Inhibition of binding (%) [15]: 76% | Inhibition of binding (%) [16]: 37.2% | Mean absorbance at 405 nm (absorbance at 405 nm) [17]: 0.273 | Inhibition of binding (%) [18]: 81.5% | Inhibition of binding (%) [19]: 68.1% | Inhibition of binding (%) [20]: 20.9%

M22 IgG (antibody)
% inhibition of TSH-biotin binding [21]: -7.7% | Inhibition of binding (%) [22]: 1.5%

B1: 5C9 IgG (antibody, from another filing, V domains shown)
VH: EVQLVESGGGLIQPGGSLRLSCAASGFTVSSNYMSWVRQAPGKGLEWVSVTYSGGSTSYADSVKGRFTISRDNSKNTLYLQMNSLRAEDTAVYYCARGGRYCSSISCYARSGCDYWGQGTLVTVSS
VL: AIQMTQSPSSLSASVGDRVTITCRASQSISNYLNWYQQKPGKAPKLLIYAASSLQSGVPSRFSGSGSGTDFTLTISSLQPEDFATYYCQQSYSSPSTTFGQGTKLEIK
Inhibition of binding (%) [23]: 8.3% | Inhibition of binding (%) [24]: -11.2% | Inhibition of binding (%) [25]: -8% | Inhibition of binding (%) [26]: 48% | Inhibition of binding (%) [27]: 11.7%
